{"source": "a protein production outcome set (Wang et al. 2014)", "assay": "label from the status in PepcDB records", "data": [{"sequence": "MPPDEIEIEPVRQSSDKMLYCEAESPPTVEKVKPARENSETDLEIEDDEKFFTTGQKELYLEACKLMGVVPVSYFIRNMEESYVNLNHHGLGPRGTKAIAIALVSNMAVTKLELEDNCIMEEGVLSLVEMLQENYYLQEMNISNNHLGLEGARIISDFFERNSSSIWSLELSGNDFKEDSAALLCQALSTNYQIKKLDLSHNQFSDVGGEHLGQMLAINVGLTSLDLSWNNFHTRGAVALCNGLRGNVTLTKLDLSMNGFGNEVALALGEVLRLNRCLVYLDIGGNDIGNEGASKISKGLESNESLRVLKLFLNPINMDGAILLILAIKRNPKSRMEELDISNVLVSEQFMKTLDGVYAVHPQLDVVFKAVQGLSPKKTIFLLTNPMKLIQSYADQHKITIVDFFKSLNPTGTMKMSVDEFQKVMIEQNKVPLNQYQVREVIKKLDEKTGMVNFSFLNTMKP", "values": [{"measurement": "protein production", "result": "failed"}]}, {"sequence": "MSLREVALKILIVEDDTDAREWLSTIISNHFPEVWSAGDGEEGERLFGLHAPDVIITDIRMPKLGGLEMLDRIKAGGAKPYVIVISAFSEMKYFIKAIELGVHLFLPKPIEPGRLMETLEDFRHIKLAKEGHHHHHH", "values": [{"measurement": "protein production", "result": "not failed"}]}, {"sequence": "MDVAIELTTRVGVLLFFIAICHVIAQRVRLPDPIILTAAGVTIGFGYVALEHVAPAFAANTIAPFLSPAMPPEAYLWIFLPPILFQAAIEVDSSGFVADLGPILLLAIGAVVAATLSVGAVAYLTSGQGLIACLLLGAIVSTTDPSTVIGLFQSSGAPARLIRLVEGESLFNDAAAIAITTLLTGVISVMPTHDAAHFPLAQFLLSLLGGCAVGWLVGVVLVFVSGAMRSPPFAEYSLSLALPNLIYPFAERVLHVSGVAAVVCAGLVVGRIMLSRRPASHVKLFRQLWLYQATIASASVLLLATAHVPSLLDDLRMIDVVILLLVLVAAVASRFGILSVSMPMMSRIGICKPLPVSHQLLIAWGGVRGPVTLTLAICLARNQDLAPDTRHFAAAMAAGFVLLNLFFNGLTLKLFARWLGVAAPGGRRPAAIEVD", "values": [{"measurement": "protein production", "result": "failed"}]}, {"sequence": "MIEGIIEEIRTNGSFLITTHENPDGDAVGSSLALAGYLRRLGKDVTIHFCDPVPDLYAFLPLAEEVTRTVPDRDYDICFVLDVGEFRRAGKQIAECKRIKKFINIDHHLTSDNFGFINYIDPKAAATGILVHRIITGAGDVVGYETALCLYTAIITDTGSFRYSNANPEAFAIAGELVSTGINTWSIAEKLYESQPRERLELLALALSTLTISPRGEYASITVTLDMYNKTGASAELTDGFVNYPRSIRGVEVSVFFREINPGLFKVGFRSKGKIDVSRIAAAFGGGGHHNAAGATMNGSLEGIKATLFSHLESTLLEHHHHHH", "values": [{"measurement": "protein production", "result": "not failed"}]}, {"sequence": "MSEALSDSGLPPVQRVVTGHDAHGRAVFKSEDVTPTRMIPSGDASFLLVWTTATVPADNNDETDGRQREAGLTLDGGSVIRVVDMLPGKESPMHRTNSIDYGIVLEGEIELELDDGAKRTVRQGGIIVQRGTNHLWRNTTDKPCRIAFILIEAPAYLHNGQPLPEDKPDHK", "values": [{"measurement": "protein production", "result": "not failed"}]}, {"sequence": "MATQAAGIFSPAITTTTSAVKKLHLFSSSHRPKSLSFTKTAIRAEKTESSSAAPAVKEAPVGFTPPQLDPNTPSPIFAGSTGGLLRKAQVEEFYVITWNSPKEQIFEMPTGGAAIMREGPNLLKLARKEQCLALGTRLRSKYKITYQFYRVFPNGEVQYLHPKDGVYPEKANPGREGVGLNMRSIGKNVSPIEVKFTGKQSYDL", "values": [{"measurement": "protein production", "result": "failed"}]}, {"sequence": "SEAKVTRSCAETRQVLGARGYSLNLIPPALISGEHLRVCPQEYTCCSSETEQRLIRETEATFRGLVEDSGSFLVHTLAARHRKFDEFFLEMLSVAQHSLTQLFSHSYGRLYAQHALIFNGLFSRLRDFYGESGEGLDDTLADFWAQLLERVFPLLHPQYSFPPDYLLCLSRLASSTDGSLQPFGDSPRRLRLQITRTLVAARAFVQGLETGRNVVSEALKVPVSEGCSQALMRLIGCPLCRGVPSLMPCQGFCLNVVRGCLSSRGLEPDWGNYLDGLLILADKLQGPFSFELTAESIGVKISEGLMYLQENSAKVSAQVFQECGPPDPVPARNRRAPPPREEAGRLWSMVTEEERPTTAAGTNLHRLVWELRERLARMRGFWARLSLTVCGDSRMAADASLEAAPCWTGAGRGRYLPPVVGGSPAEQVNNPELKVDASGPDVPTRRRRLQLRAATARMKTAALGHDLDGQDADEDASGSGGGQQYADDWMAGAVAPPARPPRPPYPPRRDGSGGKGGGGSARYNQGRSRSGGASIGFHTQTILILSLSALALLGPR", "values": [{"measurement": "protein production", "result": "failed"}]}, {"sequence": "MRPVPPPPDRSGRCFASPRRSDLSPQAGRGEEPLAAPIEPSLPPSRPIPGRPAPPGTFAMDWTWYLFRFDGRINRALLWQALLIVALLAGLLEIVGQVIGILGGTRSTLKLAIDLDFDFGLDDLFKLVDPRASRSLASADRATSILKASGMALFFWIYLATTIKRLHDRDRSGWWIVPFFVVPGLFSQFADLLPNSNWMLPFSLAVSILWLWGLVEMFCRPGTSGHNRFGPDPLADFEDSSAASPAQGWDQSREIEIVPPNASPPGGMHVKRGA", "values": [{"measurement": "protein production", "result": "failed"}]}, {"sequence": "MASYAELFDIGEDFAAFVGHGLATEQGAVARFRQKLESNGLPSALTERLQRIERRYRLLVAGEMWCPDCQINLAALDFAQRLQPNIELAIISKGRAEDDLRQRLALERIAIPLVLVLDEEFNLLGRFVERPQAVLDGGPQALAAYKAGDYLEHAIGDVLAIIEGAAR", "values": [{"measurement": "protein production", "result": "not failed"}]}, {"sequence": "MDFFFVEYRDPLVGLIILTILVFVVAVANYIWKIFANKDEEQKLEKFIKKFEMDNAHKELLRNSSLSFGNLSFLAEIFTKSGEFEKATQIYLIALEKCKDKQEREFIFLSLAKVYFKAGFLERAKEVLLQALKLRPRNIQALKLLKIVYLKLRSYKENLELLECLFELNEDVQKERDFIKALELCTFNITDEEKKKKLLEFKIEDNPMLGRLVFEKYHMFLGQNFFDICDLLYRENEAFNLENQDFLEFFYALGKISKHDDTHQFVFKNSNFKMLKILKDNSFNAGLEFSYRCSECKNVMPLFFYHCPVCYEFNTCKIIYEVKNNETH", "values": [{"measurement": "protein production", "result": "failed"}]}, {"sequence": "MQPRLVIAGTHSGVGKTTVTLGLMAAFVEKGNIVQGFKCGPDYIDPSYHRAVTKRASRNLDSWMVSEDVVNDIFIEGCNGADLSIIEGVMGFYDGKASTSDKGSTADISLLLQAPVLLVVDISGMARSAAAVVKGFQQLNEKVKIAGVILNGAGSERHAEMCSEAIKEACGIPALGYLKKGDVPSIPERHLGLVPALERGEHDSLFSQLAAVVSRQFDLERIERLALEASALSRRTNLFQQTKRPSVVKIAVAYDAAFHFYYEENFTLLRQAGAELVYFSPLRGEDLPSHCDGLYLGGGFPEEFADELSQWIKDHPQLKKRVQSGLPTLAECGGYMFLGEQLTTTKGKTVEMAGVIPMVVQMENKLVSLGYRDVTPLDDSFLLSKGQQIRGHEFHYSKAVYTETERPAYFVKGLFGEGKEGYMSDHLLAGYTHLHFASEPAVATQWVKACEVYKNRRLHRGQVSQLEHHHHHH", "values": [{"measurement": "protein production", "result": "not failed"}]}, {"sequence": "MDTKHFLPLDFSTQVNSSLTSPTGRGSMAAPSLHPSLGPGIGSPGQLHSPISTLSSPINGMGPPFSVISSPMGPHSMSVPTTPTLGFSTGSPQLSSPMNPVSSSEDIKPPLGLNGVLKVPAHPSGNMASFTKHICAICGDRSSGKHYGVYSCEGCKGFFKRTVRKDLTYTCRDNKDCLIDKRQRNRCQYCRYQKCLAMGMKREAVQEERQRGKDRNENEVESTSSANEDMPVERILEAELAVEPKTETYVEANMGLNPSSPNDPVTNICQAADKQLFTLVEWAKRIPHFSELPLDDQVILLRAGWNELLIASFSHRSIAVKDGILLATGLHVHRNSAHSAGVGAIFDRVLTELVSKMRDMQMDKTELGCLRAIVLFNPDSKGLSNPAEVEALREKVYASLEAYCKHKYPEQPGRFAKLLLRLPALRSIGLKCLEHLFFFKLIGDTPIDTFLMEMLEAPHQMT", "values": [{"measurement": "protein production", "result": "failed"}]}, {"sequence": "MTITTERGSQQYAYTDLPRLMGLMTGDEKHGPAATSTLDALWVLYDRVLRVAPERVDEPGRDRFLLSKGHGPMAYYAVLAAKGFLPVDWLPDFGSYDSPLGHHPDRVLVPGAEIGSGSLGHGLPIAVGTALGLRAQGLGEPRVWVLTGDAELDEGSNHEAIAYAGAAGLERLHTIVIDNSSATHALTGGIAARFEAAGWATTTVDGHDHEALHAAFTAPHEGRPLAVVARVRPKDA", "values": [{"measurement": "protein production", "result": "failed"}]}, {"sequence": "MRTLNKDEHNYIKQIANIHETLLSQVESNYKCTKLSIALRYEMICSRLEHTNDKIYIYENEGQLIAFIWGHFSNEKSMVNIELLYVEPQFRKLGIATQLKIALEKWAKTMNAKRISNTIHKNNLPMISLNKDLGYQVSHVKMYKDID", "values": [{"measurement": "protein production", "result": "not failed"}]}, {"sequence": "MAKILEGPAMKLFNKWGIPVPNYVVIMDPKRLAQLGEANKWLRESKLVVKAHEAIGGRFKLGLVKIGLNLDEAIQASREMLGAKVGTAEVRQVIVAEMLDHDAEFYVSIIGNRDGAELLISKYGGVDIEDNWDSVRRIQIPLDEHPTIEQLTALAKEAGFEGEIAERVGKICSRLVLCFDNEDAQSIEINPLVIRKSDMRFAALDAVMNVDWDARFRHADWDFKPVSEIGRPFTEAEQQIMDIDSRIKGSVKFVEVPGGEIALLTAGGGASVFYADAVVARGGTIANYAEYSGDPPDWAVEALTETICRLPNIKHIIVGGAIANFTDVKATFSGIINGLRESKSKGYLEGVKIWVRRGGPNEAQGLAAIRKLQEEGFDIHVYDRSMPMTDIVDLALKS", "values": [{"measurement": "protein production", "result": "not failed"}]}, {"sequence": "MFTGSIVALVTPMDEKGNVSRSCLKKLIDYHVANGTSAIVSVGTTGESATLSHDEHGDVVMMTLELADGRIPVIAGTGANATAEAISLTQRFNDSGIVGCLTVTPYYNRPTQEGLFQHFKAIAEHTDLPQILYNVPSRTGCDMLPETVGRLAEIKNIIAIKEATGNLTRVHQIKELVSDDFILLSGDDASALDFMQLGGHGVISVTANVAAREMADMCKLAAEGQFAEARAINQRLMPLHNKLFVEPNPIPVKWACKALGLVATDTLRLPMTPITDHGRDIVKAALQHAGLL", "values": [{"measurement": "protein production", "result": "not failed"}]}, {"sequence": "SAESSKLSATTVEAAPAMIKAKDVISPSEKEESDQTEITKVSVLKNLDEKEMIKEFADRLQRLEAKVDLLVTKADLLAIKADIQELLISAKGEKVPAMKTSAKASSESDDSYMDTSSEDESSSAEEPVNKPAASAAKPATKDSLFSAGFKPAAKDSLFSAGFKPDSLFSAGFEPAAKDSLFSAGFKPGSLFSAGFEPAAKDSLFSAGFKPDSLFSVGVKPAAKDSLFSVGVNGRSFSVTGFDASLPVDDIKSALSKYFSSFGEITRVFVPPSHGTGGSLGYAYIDLKEGAEKALELGRHDVGGWDLVVGKAEPIRSGSTWPFPGRCGNQGRCTFC", "values": [{"measurement": "protein production", "result": "failed"}]}, {"sequence": "MMIDPELRPAFLPAGKLRAAINLGNPILAGTDAAGQAVGVSVDLAREFARRLNAGIELRVFDTAGQSVDAVTREEADIGFFAIDPARGAGIAFTGPYVLIEGAYLVRDDSPLQANEDVDRAGKRVTVGKGSAYDLHLTRALQHLEHHHHHH", "values": [{"measurement": "protein production", "result": "not failed"}]}, {"sequence": "HRAKIRMEALPEDYERVPGTDMTPEQAYNVSNLDPALQKALDDLSPDFRVAVVLCDVVGMSYDEIADTLGVKMGTVRSRIHRGRSQLRAHLENQATSDEGAQLLLATGR", "values": [{"measurement": "protein production", "result": "failed"}]}, {"sequence": "MRLDRNPWHWRIWVCIAVLALWPRAASADTITPERIADALSKLDALAQGAVADGGVPGLAIAVVHDDEVIFLRGFGHREAGKPEAVDADTVFQIASLSKPVSATVVAALVSDGIVSWDSKVADLDPAFRLADPYPTSQLTVRDLFSHRSGLPGTAGDDLEDIGYDRAEILHRLRFVPPSSSFRAGYSYSNFGLTEGAVAAAMPTGKSWEEVAQEKLYRPLGMASTSSRHSDFVKHADRAALHIKVDGAWAAKIERDPDAQAPAGGVSSTARDLSQWVRLILGNGVYAGKTLIAADALDQTHVPLMTRGKNPVSGGESFYGLGWNVEFGRHGLSWGHAGAFSVGARTLVTIFPQDKLGIVIIANAFPTGVPEGLSDSFADLVFDGSVQKDWVKAWDGIYAGMFGPVVEAAKATYAAPPSPARPARPASAYAGRYANDFFGDAVVASAGDGLVLKVGPHGARSYSLAHFDGDLFLTYPDAETPDRPTGVSFVVGPDGKASAMTIGFLDDNHLGTLRRVGD", "values": [{"measurement": "protein production", "result": "failed"}]}]}
